These results are taken from US20240043504A1 (published 2024).

B1: mAb10939 (antibody, V domains shown)
VH: EVQLVESGGGLVQPGGSLRLSCAASGLTVSSNYMNWVRQVPGKGLEWVSVIYSGGSKFYVDSVKGRFTISRHNSKNTLYLQMNSLRPEDTAVYYCTRDAQYYGMDVWGQGTTVTVSS
VL: DIQMTQSPSSLSASVGDRVTITCRASQSISTYLHWYQQKPGEAPKLLIYAASSLQSGVPSRFSGSGSGTDFTLTISSLQPEDFATYYCQQSYSTPPEIFGQGTKLEIKR
B2: mAb10984 (antibody, V domains shown)
VH: EVQLVESGGGLVQPGGSLRLSCAASGLTVNRNYMSWVRQAPGKGLEWVSLIYSGGSTYYADSVKGRFTISRDNSKNTLYLQMNSLRLEDTAVYYCARGELGIPYGMDVWGQGTTVTVSS
VL: QSVLTQPPSVSAAPGQKVTISCSGSSSNIGNNYVSWYQQLPGTAPKLLIYDNNKRPSGIPDRFSGSKSGTSATLGITGLQTGDEADYYCGTWDSSLSAGVFGGGTKLTVLG
B3: mAb10937 (antibody, V domains shown)
VH: QITLKESGPTLVKPTQTLTLTCTFSGFSLSTNVVGVGWIRQPPGKALEWLALIYWNDDKRYSPSLKSRLTITKDTSKNQVVLTMTNMDPVDTATYYCAHGPTGDYFDYWGQGTLVTVSS
VL: not shown
B4: mAb10935 (antibody, V domains shown)
VH: EVQLVESGGGLVQPGGSLRLSCAASGFTVSSNYMSWVRQAPGKGLEWVSLIYSGGSTYYADSVKGRFTISRHNSKNTLYLQMNSLRSEDTAVYYCARVPLGDYYYGMDVWGQGTTVTVSS
VL: DIQMTQSPSSLSASVGDRVTITCQASQDINKYLNWYQQKPGKAPKLLIYDASNLETGVPSRFSGSGSGTDFTFTISSLQPEDIATYYCQQSDNLPLTFGGGTKVEIKR
B5: mAb10954 (antibody, V domains shown)
VH: EVQLVESGGGLVQPGGSLRLSCAASGITVSSNYMSWVRQAPGKGLEWVSLIYSGGSTYYADSVKGRFTISRDNSKNTLYLQMNSLRVEDTAVYYCARDHGMAAAGYNYWGQGTLVTVSS
VL: DIQMTQSPSSLSASVGDRVTITCQASQDINKYLNWYQQKPGKAPKLLIYDASNLETGVPSRFSGSGSGTDFTFTINSLQPEDFATYFCQQYDNLPPAFGQGTKVEIKR
B6: mAb10938 (antibody, V domains shown)
VH: EVQLVESGGGLVQPGGSLRLSCAVSGFTVSSNYMSWVRQAPGKGLEWVSLIYSGGSTFYADSVKGRFTISRHNSKNTLYLQMNSLRAEDTAVYYCAREGGYSYDYNYWGQGTLVTVSS
VL: DIQMTQSPSSLSASVGDRVTITCQASQDIRNYLNWYQQKPGKAPKLLIYDASNLETGVPSRFSGIGSGTDFTFTISSLQPEDIATYYCQQYDNLPITFGQGTRLEIKR
B7: mAb10967 (antibody, V domains shown)
VH: EVQLVESGGGLVQPGGSLRLSCAASGFTVSSNYMSWVRQAPGKGLEWVSVIYPGGSTFYADSVKGRFTISRDNSKNTLYLQMNSLRAEDTAVYYCARDQRDFAWGQGTLVTVSS
VL: DIQMTQSPSSLSASVGDRVTITCQASQDISNYLNWYQQKPGKAPKLLIYDASNLETGVPSRFSGSGSGTDFTFTISGLQPEDIATYYCQQYDNLPPTFGQGTRLEIKR
B8: mAb10964 (antibody, V domains shown)
VH: QVQLQESGPGLVKPSETLSLTCTVSGGSINNYYWIWIRQPPGKGLEWIGYIYHSGSTNYNPSLKSRVTISVDTSKNQFSLKVSSVTAADTAVYYCANMVRGVYEDDYWGQGTLVTVSS
VL: DIQMTQSPSSLSASVGDRVTITCRASQSISNYLNWYQQKPGKAPKLLIFAASSLRSGVPSRFSGSGSGTDFTLTISSLHPEDFATYYCQQNYNTPLTFGPGTKVDIKR
B9: mAb10921 (antibody, V domains shown)
VH: EVQLVESGGGLVQPGGSLRLSCAASGITVSSNYMSWVRQAPGKGLEWVSVIYSGGSTFYADSVKGRFTISRHNSKNTLYLQMNSLRAEDTAVYYCARERNFDAFDIWGQGTMVTVSS
VL: DIQMTQSPSSVSASVGDRVTITCRASQGISSWLAWYQQKPGKAPKLLIYAASSLQSGVPSRFSGSGSGTDFTLTISSLQPEDFATYYCQQANSFPLFTFGPGTKVDIKR
B10: mAb10971 (antibody, V domains shown)
VH: EVQLVESGGGLIQPGGSLRLSCAASGVTVSSNYMSWVRQAPGKGLEWVSVIYSGGSTFYSDSVKGRFSISRDNSKNTLYLQMNSLRAEDTAVYYCARDLYYYGMDVWGQGTTVTVSS
VL: DIQLTQSPSFLSASVGDRVTITCRASQGISTYLAWYQQKPGKAPKLLIYAASTLQSGVPSRFSGSGSGTEFTLTISSLQPEDFATYYCQQLDSYPGLTFGGGTKVEIKR
B11: mAb10920 (antibody, V domains shown)
VH: QVQLVESGGGVVQPGRSLRLSCAASGFTFSYYGMHWVRQAPGKGLEWVAVIWYDGSNKFYADSVKGRFTISRDNSKNTLYLQMNSLRAEDTAVYYCAAARPGYYYGMDVWGQGTTVTVSS
VL: DIQMTQSPSSLSASVGDRVTITCRASQGISNYLAWFQQKPGKAPNSLIYAASSLQRGVPSKFSGSGSGTDFTLTISSLQPEDFATYYCQQYNSYPRTFGQGTKVEIKR
B12: mAb10966 (antibody, V domains shown)
VH: EVQLVESGGGLVQPGGSLRLSCAASGLTVSSNYMSWVRQAPGKGLEWVSVIYSGGSTFYADSVKGRFTISRDNSKNTLYLQMNSLRPEDTAVYYCAREGRIAATGYGMDVWGQGTTVTVSS
VL: not shown
B13: mAb10936 (antibody, V domains shown)
VH: QVQLVESGGGVVQPGRSLRLSCAASGFTFRNYGMHWVRQAPGKGLEWVSVIWYDGSNRYYADSVKGRFTISRDTSKNTLYLQMNSLRAEDTAVYYCARDPPITGTTGGDAFDIWGQGTMVTVSS
VL: not shown
B14: mAb10923 (antibody, V domains shown)
VH: QVQLVQSGAEVKKPGASVKVSCKASGYTFINYYIHWVRQAPGQGLEWMGWINPNSGGTNYAQKFQGRVTMTRDTSISTAYMELSRLRSDDTAVYYCAIITIFGVVTWFDPWGQGTLVTVSS
VL: not shown
B15: mAb10969 (antibody, V domains shown)
VH: QVQLVESGGGVVQPGRSLRLSCAASGFTFSSYAMHWVRQAPGKGLEWVAVISYDGSNKYYADSVKGRFTISRDNSKNTLYLQMNSLRAEDTAVYYCARDGRTITMVRGVIDDAFDIWGQGTMVTVSS
VL: not shown
B16: mAb10930 (antibody, V domains shown)
VH: EVQLVESGGGLVQPGRSLRLSCAASGFTFDDYAMYWVRQAPGKGLEWVSGISWNSGSIGYADSVKGRFTISRDNAKNSLYLQMNSLRAADTALYYCAKDKDWNSRGYYYYGMDVWGQGTTVTVSS
VL: not shown
B17: mAb10982 (antibody, V domains shown)
VH: EVQLVESGGGLVQPGGSLRLSCAASGLTVSSNYMSWVRQAPGKGLEWVSVIYSGGTTYYADSVKGRFTISRHNSKNTLSLQMNSLRAEDTAVYYCARGEGANYYGMDVWGQGTTVTVSS
VL: QSVLTQPPSVSGAPGQRVTISCTGSSSNIGTGYDVHWYQQLPGTAPKLLIYGNSNRPSGVPDRFSGSKSGTSASLAITGLQAEDEADYYCQSYDSSLSGYVVFGGGTKLTVLG
B18: mAb10986 (antibody, V domains shown)
VH: EVQLVESGGGLVQPGGSLRLSCAASEFTVSSNYMSWVRQAPGKGLEWVSVIYSGGSTFYADSVKGRFTISRDNSKNTLYLQMNSLRAEDTAVYYCARALPYGDLHFDYWGQGTLVTVSS
VL: QSVLTQPPSVSGAPGQRVTISCTGSSSNIGTGYDVHWYQQLPGTAPKLLIYGNTNRPSGVPDRFSGSKSGTSASLAITGLQAEDEADYYCQSYDSSLSDSYVFGTGTKVTVLG
B19: mAb10985 (antibody, V domains shown)
VH: EVQLVESGGGLVQPGRSLRLSCAASGFTFDDYAMHWVRQAPGKGLEWVSGISWNRGSIGYADSVKGRFTISRDNAKNSLYLQMSSLRAEDTALYYCAKDGERWDSVVVPSARNGMDVWGQGTTVTVSS
VL: QSVLTQPPSVSGAPGQRVTISCTGSSSNIGAGYDVHWYQQLPGTAPKLLIYGNSNRPSGVPDRFSGSKSGTSASLAITGLQAEDEADYYCQSYDSSLSGSYVFGTGTKVTVLG
B20: mAb10989 (antibody, V domains shown)
VH: QVQLVQSGAEVKKPGASVKVSCKASGYIFTGYYMHWVRQAPGQGLEWMGWINPNSGGANYAQKFQGRVTLTRDTSITTVYMELSRLRFDDTAVYYCARGSRYDWNQNNWFDPWGQGTLVTVSS
VL: QSALTQPASVSGSPGQSITISCTGTSSDVGTYNYVSWYQQHPGKAPKLMIFDVSNRPSGVSDRFSGSKSGNTASLTISGLQAEDEADYYCSSFTTSSTVVFGGGTKLTVLG

This experiment has as its target SARS-CoV-2 RBD extracellular domain expressed with a C-terminal mouse IgG2a (SARS-COV-2 RBD-mFc) (SARS-CoV-2).
The Kd is the equilibrium constant for the complex coming apart. Lower therefore signals a tighter complex. As a reminder, the koff is the first-order rate constant of dissociation. In general, kon refers to a measure of how fast the partners come together. High values mean faster complex formation, low ones slower complex formation. B1 displayed a Kd of 0.0387 nM, a koff of 1.15e-05 s⁻¹, a kon of 299000 M⁻¹ s⁻¹ and a t1/2 of 16.7 h.

On to B2, for which the Kd is no more than 0.0249 nM and the t1/2 was no less than 19.2 h.

Turning to B3, binding was put at a Kd of 0.114 nM, the koff was found to be 7.28e-05 s⁻¹, the kon was found to be 639000 M⁻¹ s⁻¹ and the t1/2 is 2.64 h.

For the molecule B4, the Kd is no more than 0.0261 nM, the koff was no more than 1e-05 s⁻¹, the kon worked out at 383000 M⁻¹ s⁻¹ and the t1/2 was no less than 19.2 h.

Molecule B5 gave a Kd of no more than 0.0173 nM and a t1/2 of no less than 19.2 h.

B6 yielded a Kd of no more than 0.0322 nM and a t1/2 of no less than 19.2 h.

The molecule B7 returned a Kd of no more than 0.0251 nM and a t1/2 of no less than 19.2 h.

For B8, the Kd is no more than 0.007 nM and the t1/2 was no less than 19.2 h.

Turning to B9, the Kd was no more than 0.0375 nM, the off-rate (koff) was no more than 1e-05 s⁻¹, the kon amounted to 266000 M⁻¹ s⁻¹ and the t1/2 is no less than 19.2 h.

In turn, B10 came in with a Kd of no more than 0.0253 nM, an off-rate constant (koff) of no more than 1e-05 s⁻¹, a kon of 395000 M⁻¹ s⁻¹ and a t1/2 of no less than 19.2 h.

B11: the Kd was found to be 0.416 nM and the t1/2 is 0.658 h.

In the case of B12, the dissociation constant Kd was no more than 0.0249 nM and the t1/2 is no less than 19.2 h.

Consider B13, for which the Kd is no more than 0.0153 nM, the koff is no more than 1e-05 s⁻¹, the kon is 652000 M⁻¹ s⁻¹ and the t1/2 is no less than 19.2 h.

B14 came in with a Kd of 0.0435 nM, an off-rate (koff) of 2.83e-05 s⁻¹, a kon of 651000 M⁻¹ s⁻¹ and a t1/2 of 6.79 h.

B15 gave a Kd of 0.0496 nM and a t1/2 of 12.7 h.

B16 displayed a Kd of no more than 0.0431 nM, a koff of no more than 1e-05 s⁻¹, a kon of 232000 M⁻¹ s⁻¹ and a t1/2 of no less than 19.2 h.

For the molecule B17, the Kd was 0.0544 nM, the koff came out at 1.69e-05 s⁻¹, the kon was 310000 M⁻¹ s⁻¹ and the t1/2 was 11.4 h.

On to B18, for which the Kd was no more than 0.0158 nM and the t1/2 is no less than 19.2 h.

Molecule B19 gave a Kd of 0.0117 nM and a t1/2 of 15.2 h.

In turn, B20 came in with a t1/2 of 2.07 h.
